Assay results taken from the supplement of paper PMC9732359.
± gives the uncertainty stated by the source.

Test: protein stability index of a GFP-peptide fusion (yeast GPS) (PSI 1-4); higher = more stable; sorted into four equal gates, so the index is relative within each strain
In short: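 Tiled 17-residue peptides from yeast proteins were fused downstream of GFP on a plasmid that also expresses Cherry, and the pooled library was carried in yeast. Mid-log cultures grown in leucine-free medium were sorted into four equal gates by GFP/Cherry fluorescence ratio. Plasmids from each gate were PCR-amplified and Illumina-sequenced, and reads were assigned to strains by barcodes. Each peptide's protein stability index is the sum, over gates, of the gate's read frequency multiplied by its gate number.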

Sequence | protein stability index (doa10∆) | protein stability index (pdr5∆) | protein stability index (san1∆) | protein stability index (ubr1∆)
MPQSGTGVSVEAVDDVF [RPN11] | 3.35 ± 0.11 | 3.12 ± 0.11 | 3 ± 0.092 | 3.19 ± 0.051
MPRAPRTYSKTYSTPKR [RPS9A] | 2.3 ± 0.064 | 2.45 ± 0.069 | 2.68 ± 0.053 | 2.62 ± 0.054
MQANTNALRRNLLKDEG [SSN3] | 2.94 ± 0.11 | 3.1 ± 0.25 | 2.98 ± 0.21 | 3.2 ± 0.27
MQDPDGIDINTKIFNSV [YCG1] | 2.93 ± 0.21 | 3.04 ± 0.12 | 2.54 ± 0.17 | 2.89 ± 0.068
MQRHVKVDGKVRTDTTY [RPS4A] | 3.26 ± 0.1 | 3.28 ± 0.083 | 3.03 ± 0.088 | 3.06 ± 0.063
MRILSNDITNLQLSKTP [SRB8] | 2.59 ± 0.058 | 2.71 ± 0.08 | 2.92 ± 0.052 | 2.8 ± 0.046
MRSTSILTEHLGYPPIS [MTW1] | 2.9 ± 0.076 | 2.74 ± 0.065 | 2.87 ± 0.062 | 3.06 ± 0.091
MSDEDNNYDDFMLSDDE [RRI2] | – | 3.58 ± 0.23 | 3.28 ± 0.25 | –
MSDPSSINGGIVVAMTG [PUP3] | – | 2.39 ± 0.21 | – | –
MSGAAAASAAGYDRHIT [SCL1] | 3.08 ± 0.24 | 2.87 ± 0.16 | 3.27 ± 0.12 | 2.94 ± 0.14
MSHRKYEAPRHGHLGFL [RPL3] | – | 3.15 ± 0.19 | 2.9 ± 0.099 | 2.94 ± 0.23
MSLPATFDLTPEDAQLL [RPS0A] | 2.75 ± 0.079 | 2.83 ± 0.12 | 2.47 ± 0.15 | 2.31 ± 0.11
MSLSNKTVKELRQLLKE [RRI1] | 1.95 ± 0.094 | 1.42 ± 0.083 | 1.28 ± 0.11 | 1.85 ± 0.15
MSLSVAEKSYLYDSLAS [RRP42] | – | 1.64 ± 0.18 | – | –
MSREGFQIPTNLDAAAA [RPC10] | 1.28 ± 0.1 | 1.08 ± 0.082 | 1.35 ± 0.16 | 1.16 ± 0.2
MSRPQVTVHSLTGEATA [RPL4A] | 1.59 ± 0.09 | 2.28 ± 0.07 | 1.88 ± 0.059 | 2.07 ± 0.082
MSSAAEKKPASKAPAEK [HTB2] | 2.74 ± 0.064 | 3.3 ± 0.081 | 2.69 ± 0.08 | 2.91 ± 0.054
MSSTTPKLESVKWQYDP [SNF12] | 3.16 ± 0.065 | 3.25 ± 0.066 | 3.09 ± 0.048 | 3.39 ± 0.062
MSVQDTKAVEFSMGHIR [MED4] | 3.24 ± 0.11 | 3.37 ± 0.093 | 3.22 ± 0.069 | 2.9 ± 0.088
MTLKEMYQMITMGGNAE [SMC4] | 2.72 ± 0.065 | 2.41 ± 0.056 | 2.44 ± 0.058 | 2.77 ± 0.068
MTMLTPNYLHLVSSYLN [YML103C/NUP188] | 1.82 ± 0.039 | 1.66 ± 0.035 | 1.69 ± 0.051 | 1.4 ± 0.032
MTMQVAVPRDELGRSNY [FAS1] | 2.7 ± 0.085 | 3 ± 0.11 | 2.99 ± 0.047 | 2.99 ± 0.092
MTTFRFCRDCNNMLYPR [RPB9] | 2.78 ± 0.14 | 3.14 ± 0.11 | 3.41 ± 0.14 | 2.99 ± 0.068
MTTSAVSPTVGKLFSDI [YIL149C/MLP2] | 3.1 ± 0.073 | 3.33 ± 0.064 | 3.24 ± 0.044 | 3.16 ± 0.036
MTTWRKLYTKELSVTGS [YMR129W/POM152] | 2.06 ± 0.078 | 1.34 ± 0.072 | 1.41 ± 0.14 | 1.14 ± 0.04
MVDESDKKQQTIDEQSQ [RPN1] | 3.17 ± 0.16 | 3.25 ± 0.16 | 3.38 ± 0.11 | 3.43 ± 0.12

Sequence | protein stability index (doa10∆) | protein stability index (pdr5∆) | protein stability index (san1∆) | protein stability index (ubr1∆)
MVKNVKPSSPPDVKSLV [SIR4] | 3.23 ± 0.11 | 3.12 ± 0.063 | 2.97 ± 0.085 | 3.13 ± 0.068
MVLRKQKRYTVKKALAK [RPL14A] | 2.08 ± 0.14 | 2.13 ± 0.1 | – | 1.55 ± 0.19
MVLRNVMEYDVKFYEIF [SRB8] | 1.88 ± 0.081 | 2 ± 0.099 | 1.62 ± 0.099 | 2.1 ± 0.067
MVRLKSRYILFEIIFPP [POP5] | 1.47 ± 0.067 | 1.42 ± 0.054 | 1.52 ± 0.084 | 1.5 ± 0.047
MVTSNVVLVSGEGERFT [SKP1] | 2.11 ± 0.14 | 2.56 ± 0.086 | 2.26 ± 0.12 | 1.73 ± 0.081
MYTRLCICSGMLFEMDG [SIN4] | 1.45 ± 0.038 | 1.41 ± 0.038 | 1.48 ± 0.073 | 1.42 ± 0.029
NAAVAGVANTDTAGEES [SWI3] | 3.06 ± 0.061 | 3.27 ± 0.062 | 3 ± 0.046 | 3.15 ± 0.056
NAEAKGLDATKLYVSHI [RPL17A] | 3.23 ± 0.16 | 3.13 ± 0.092 | 3.01 ± 0.05 | 3.03 ± 0.071
NAIIEANLGKYGILSID [RPL7A] | 2.87 ± 0.17 | 2.97 ± 0.14 | 2.84 ± 0.094 | 2.89 ± 0.15
NAKDIQIPVYDTFDGSD [FAS1] | 2.47 ± 0.078 | 2.56 ± 0.07 | 2.07 ± 0.052 | 2.29 ± 0.064
NALEHKYFTESDIPVSE [SSN3] | 2.3 ± 0.081 | 2.75 ± 0.11 | 2.76 ± 0.082 | 2.94 ± 0.096
NANIFSSVKCFGPIKVE [FAS1] | 2.04 ± 0.068 | 1.63 ± 0.046 | 2.17 ± 0.067 | 1.51 ± 0.058
NANRVFRTRFQDGTSVV [SMC2] | 2.74 ± 0.16 | 1.29 ± 0.1 | 2.31 ± 0.26 | 2.34 ± 0.085
NARKVVGASVVVVKNWG [RPS12] | 2.83 ± 0.15 | 2.69 ± 0.13 | 2.12 ± 0.24 | 2.67 ± 0.084
NATHDEDEFIVQHDQIL [SWP82] | 2.93 ± 0.036 | 3.13 ± 0.032 | 2.96 ± 0.032 | 3.044 ± 0.023
NATVNLAMEAILNELEV [YJR042W/NUP85] | 2.7 ± 0.11 | 3 ± 0.11 | 2.58 ± 0.12 | 2.55 ± 0.11
NAVSFDTTFSDFKEVED [SRB4] | 3.13 ± 0.043 | 2.53 ± 0.039 | 2.6 ± 0.039 | 2.74 ± 0.039
NCFFDVIVPQIVLDEVR [DIS3] | 1.62 ± 0.12 | 1.55 ± 0.17 | – | 1.47 ± 0.12
NDFTTKLINIKKFDISN [MED1] | 1.67 ± 0.08 | 1.47 ± 0.096 | 1.56 ± 0.28 | 2.28 ± 0.27
NDICSVENYETSSAFFY [SIR4] | 2.82 ± 0.046 | 2.88 ± 0.051 | 2.64 ± 0.05 | 2.77 ± 0.053
NDLEVGVATKDKFFTLS [SCL1] | 3.18 ± 0.084 | 3.33 ± 0.067 | 3.08 ± 0.072 | 2.89 ± 0.12
NDLQSETKTKKEKIKGL [SMC4] | 3.32 ± 0.2 | 3.25 ± 0.25 | – | 3.5 ± 0.12
NDNEDDDEEYDYNDVEV [BRR2] | 3.28 ± 0.077 | 3.22 ± 0.079 | 3.34 ± 0.06 | 3.4 ± 0.052
NDNIGANRSRFNNEAPP [SMB1] | 2.64 ± 0.076 | 3.02 ± 0.047 | 2.54 ± 0.065 | 3.01 ± 0.067
NDPEYMDTSDDAFVATA [DLS1] | 3.1 ± 0.17 | 3.49 ± 0.16 | 3.33 ± 0.14 | –
NDQALIKVLLRQNRRPE [RET1] | 1.83 ± 0.087 | 2.45 ± 0.094 | 3.01 ± 0.079 | 2.77 ± 0.059

Sequence | protein stability index (doa10∆) | protein stability index (pdr5∆) | protein stability index (san1∆) | protein stability index (ubr1∆)
NDRESVLTNIEVYRTSL [SMC3] | 2.94 ± 0.13 | 3.21 ± 0.15 | 3.05 ± 0.12 | 2.97 ± 0.081
NDSFKGLITNKMWFDVQ [PRP8] | 2.98 ± 0.16 | 2.99 ± 0.085 | 3.03 ± 0.11 | 3.08 ± 0.087
NDVTRRTVKNILVSVLP [CSL4] | 2.89 ± 0.12 | 3.12 ± 0.1 | 3.11 ± 0.08 | 3.09 ± 0.11
NEDDALIYGISDEERDD [AAR2] | 3.29 ± 0.12 | 3.53 ± 0.13 | 3.62 ± 0.066 | 3.2 ± 0.12
NEDMVRRANFYKENEAM [SNF12] | 3.33 ± 0.11 | 3.48 ± 0.087 | 3.39 ± 0.057 | 3.48 ± 0.1
NEDSKAFHTAVLRLNAI [NUT1] | 3.26 ± 0.058 | 3.34 ± 0.055 | 3.41 ± 0.047 | 3.27 ± 0.051
NEGVPSPMLSISNLTQE [FAS1] | 2.84 ± 0.055 | 2.94 ± 0.062 | 2.96 ± 0.058 | 3.12 ± 0.059
NEIEGKNEETPQNEKPP [RPC25] | 2.76 ± 0.21 | 3.14 ± 0.15 | 2.22 ± 0.11 | 3.3 ± 0.078
NEIKQLGSDSSDGHNSE [SRB4] | 2.6 ± 0.072 | 2.8 ± 0.084 | 2.31 ± 0.078 | 3 ± 0.09
NEISRNGTMINEVIDKL [PCI8] | 2.59 ± 0.067 | 2.51 ± 0.066 | 2.48 ± 0.072 | 2.78 ± 0.065
NELMRWPIVQKTYEPVL [RPN5] | 2.25 ± 0.06 | 2.39 ± 0.057 | 2.24 ± 0.075 | 1.83 ± 0.037
NEQAARAANQGALPPDL [CYT1] | 3.18 ± 0.058 | 3.32 ± 0.049 | 2.94 ± 0.053 | 3.03 ± 0.042
NERELNVFARLSRLLSL [RPC82] | 2.02 ± 0.16 | 2.07 ± 0.11 | 2.79 ± 0.13 | 2.5 ± 0.06
NESEKDQWLEEYKKHFP [UBP6] | 3.31 ± 0.16 | 3.6 ± 0.19 | – | 3.32 ± 0.11
NETSEQLVPIRLEFDQD [SNF5] | 3.19 ± 0.097 | 3.12 ± 0.099 | 3.31 ± 0.11 | 3.29 ± 0.07
NEYPVADAVTKDLKLRR [REC8] | 3.08 ± 0.1 | 3.23 ± 0.095 | 3.28 ± 0.038 | 3.23 ± 0.041
NFGNNGAGGLNPFTSAT [YOR098C/NUP1] | 2.89 ± 0.055 | 3.21 ± 0.09 | 3.15 ± 0.045 | 3.04 ± 0.052
NFKSYRGVTKVGFGESN [SMC1] | 3.03 ± 0.096 | 2.89 ± 0.13 | 2.53 ± 0.15 | 2.72 ± 0.11
NFNSVNDANITSNKEGF [SSN2] | 3 ± 0.11 | 3.25 ± 0.084 | 3.32 ± 0.054 | 3.12 ± 0.065
NFPVRQWSIEIVLLDDE [TAF14] | 1.57 ± 0.07 | 1.5 ± 0.055 | 2.37 ± 0.093 | 2.19 ± 0.059
NFRTMQQQQMQQQQQQQ [SSN2] | – | 3.15 ± 0.23 | 2.37 ± 0.12 | –
NGASVPINLHPSKLVIT [RPL26A] | 1.75 ± 0.058 | 1.83 ± 0.06 | 1.96 ± 0.067 | 1.41 ± 0.05
NGAVGKREGKTRLLNIV [ISW2] | 3.27 ± 0.12 | 2.95 ± 0.11 | 3.03 ± 0.051 | 2.97 ± 0.088
NGDNLYGNDEEVLFYED [RPN4] | 3.07 ± 0.1 | 3.22 ± 0.12 | 3.1 ± 0.096 | 2.95 ± 0.074
